Measurements taken from article PMC6662825, “The MTR4 helicase recruits nuclear adaptors of the human RNA exosome using distinct arch-interacting motifs” (Nature Communications, 2019).
Substitutions are numbered along the chain they refer to.

Legend:
[1] = target: T1, GST-MTR4∆N F677E (human, UniProt P42285 75-1042, F677E); experiment: pull-down; GST-tagged MTR4 constructs as bait, Trx-NVL constructs as prey, glutathione sepharose; 10 μM GST-MTR4∆N with 20 μM Trx-NVL constructs; 50 mM Hepes pH 7.5, 150 mM NaCl, 5% glycerol, 0.05% NP40, 1 mM DTT, 30 min at 4 °C; SDS-PAGE, Coomassie; details: both partners purified
T1 construct: source: E. coli BL21 star (DE3), purified (Ni-NTA, heparin, SEC); not shown: 6xHis-GST, N-terminal, kept
T1 sequence (looked up): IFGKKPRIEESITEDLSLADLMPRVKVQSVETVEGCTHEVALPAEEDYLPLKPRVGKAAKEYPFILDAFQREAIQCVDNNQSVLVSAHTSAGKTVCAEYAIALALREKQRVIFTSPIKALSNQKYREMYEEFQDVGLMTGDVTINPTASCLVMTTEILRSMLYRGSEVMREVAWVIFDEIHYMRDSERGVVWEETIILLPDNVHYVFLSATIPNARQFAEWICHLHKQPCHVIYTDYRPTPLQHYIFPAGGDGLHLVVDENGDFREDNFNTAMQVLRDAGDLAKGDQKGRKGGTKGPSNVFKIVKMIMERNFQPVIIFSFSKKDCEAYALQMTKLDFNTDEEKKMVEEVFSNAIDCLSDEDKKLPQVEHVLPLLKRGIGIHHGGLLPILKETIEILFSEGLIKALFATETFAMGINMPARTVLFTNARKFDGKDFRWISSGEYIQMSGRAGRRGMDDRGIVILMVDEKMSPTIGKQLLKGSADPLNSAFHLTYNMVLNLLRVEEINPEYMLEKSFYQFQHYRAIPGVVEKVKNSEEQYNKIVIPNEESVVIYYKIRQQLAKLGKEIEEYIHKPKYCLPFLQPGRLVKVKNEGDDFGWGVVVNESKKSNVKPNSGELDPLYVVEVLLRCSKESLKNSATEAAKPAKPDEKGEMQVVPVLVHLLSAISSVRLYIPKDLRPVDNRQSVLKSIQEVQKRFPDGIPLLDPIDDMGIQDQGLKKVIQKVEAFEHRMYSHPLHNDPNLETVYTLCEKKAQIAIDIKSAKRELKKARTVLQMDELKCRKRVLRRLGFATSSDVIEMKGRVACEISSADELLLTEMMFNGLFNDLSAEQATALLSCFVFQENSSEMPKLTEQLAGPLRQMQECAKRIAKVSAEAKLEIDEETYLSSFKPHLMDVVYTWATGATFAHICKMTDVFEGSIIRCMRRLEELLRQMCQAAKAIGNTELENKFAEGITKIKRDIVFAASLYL

[2] = target: T2, GST-MTR4∆N R743E (human, UniProt P42285 75-1042, R743E); experiment: as above; details: both partners purified
T2 construct: also called R743E mutant; source: E. coli BL21 star (DE3), purified (Ni-NTA, heparin, SEC); not shown: 6xHis-GST, N-terminal, kept
T2 sequence (looked up): T1 sequence (looked up) with E603F, R669E

B1: Trx-NVL^167–216 (domain or fragment, human, UniProt O15381 167-216, looked up)
chain: KDSEGGWFIDKTPSVKKDSFFLDLSCEKSNPKKPITEIQDSKDSSLLESD
notes: source: E. coli BL21 star (DE3), purified (Ni-NTA, SEC); not shown: 6xHis-Trx, N-terminal, kept
- binding result [1]: binds
- binding result [2]: binds
